Publication PMC10257715, “Allosteric activation of cell wall synthesis during bacterial growth” (Nature Communications, 2023)

Target: the molecule itself
Experiment: cryo-EM structure; purified RodA-PBP2 complex in 0.02% DDM, 350 mM NaCl, 20 mM HEPES pH 7.5; Titan Krios 300 kV; low-resolution maps

B1: Escherichia coli PBP2, wild type, of ^EcRodA-PBP2^WT (cryo-EM sample) (enzyme, UniProt P0AD65 1-633, looked up)
chain: MKLQNSFRDYTAESALFVRRALVAFLGILLLTGVLIANLYNLQIVRFTDYQTRSNENRIKLVPIAPSRGIIYDRNGIPLALNRTIYQIEMMPEKVDNVQQTLDALRSVVDLTDDDIAAFRKERARSHRFTSIPVKTNLTEVQVARFAVNQYRFPGVEVKGYKRRYYPYGSALTHVIGYVSKINDKDVERLNNDGKLANYAATHDIGKLGIERYYEDVLHGQTGYEEVEVNNRGRVIRQLKEVPPQAGHDIYLTLDLKLQQYIETLLAGSRAAVVVTDPRTGGVLALVSTPSYDPNLFVDGISSKDYSALLNDPNTPLVNRATQGVYPPASTVKPYVAVSALSAGVITRNTTLFDPGWWQLPGSEKRYRDWKKWGHGRLNVTRSLEESADTFFYQVAYDMGIDRLSEWMGKFGYGHYTGIDLAEERSGNMPTREWKQKRFKKPWYQGDTIPVGIGQGYWTATPIQMSKALMILINDGIVKVPHLLMSTAEDGKQVPWVQPHEPPVGDIHSGYWELAKDGMYGVANRPNGTAHKYFASAPYKIAAKSGTAQVFGLKANETYNAHKIAERLRDHKLMTAFAPYNNPQVAVAMILENGGAGPAVGTLMRQILDHIMLGDNNTDLPAENPAVAAAEDH
notes: Forms dimers of the RodA-PBP2 complex when overexpressed; also called ^EcPBP2; ^EcWT; source: overexpressed, purified
- stoichiometry N: 2
